# Results reported in article PMC9276808, “Structural identification of riluzole-binding site on human TRPC5” (Cell Discovery, 2022).
# B1: truncated functional human TRPC5 (hTRPC5_(1–764)) (domain or fragment, UniProt Q9UL62 1-764, looked up)
# chain: MAQLYYKKVNYSPYRDRIPLQIVRAETELSAEEKAFLNAVEKGDYATVKQALQEAEIYYNVNINCMDPLGRSALLIAIENENLEIMELLLNHSVYVGDALLYAIRKEVVGAVELLLSYRRPSGEKQVPTLMMDTQFSEFTPDITPIMLAAHTNNYEIIKLLVQKRVTIPRPHQIRCNCVECVSSSEVDSLRHSRSRLNIYKALASPSLIALSSEDPILTAFRLGWELKELSKVENEFKAEYEELSQQCKLFAKDLLDQARSSRELEIILNHRDDHSEELDPQKYHDLAKLKVAIKYHQKEFVAQPNCQQLLATLWYDGFPGWRRKHWVVKLLTCMTIGFLFPMLSIAYLISPRSNLGLFIKKPFIKFICHTASYLTFLFMLLLASQHIVRTDLHVQGPPPTVVEWMILPWVLGFIWGEIKEMWDGGFTEYIHDWWNLMDFAMNSLYLATISLKIVAYVKYNGSRPREEWEMWHPTLIAEALFAISNILSSLRLISLFTANSHLGPLQISLGRMLLDILKFLFIYCLVLLAFANGLNQLYFYYETRAIDEPNNCKGIRCEKQNNAFSTLFETLQSLFWSVFGLLNLYVTNVKARHEFTEFVGATMFGTYNVISLVVLLNMLIAMMNNSYQLIADHADIEWKFARTKLWMSYFDEGGTLPPPFNIIPSPKSFLYLGNWFNNTFCPKRDPDGRRRRRNLRSFTERNADSLIQNQHYQEVIRNLVKRYVAAMIRNSKTHEGLTEENFKELKQDISSFRYEVLDLLGNR
# notes: The sample was supplemented with riluzole, and Ca2+, DAG and lipids are seen in the map; also called transient receptor potential canonical subfamily member 5; source: purified
# Molecular target: the molecule itself
# Assay: cryo-EM structure; purified hTRPC5(1-764) supplemented with riluzole; single particle analysis, global resolution 2.4 Å
protein,measurement,value
B1,stoichiometry N,4
